Experimental data as given in patent US9492510B2, “Composition and method for inhibiting tumor cell growth” (St. Jude Children's Research Hospital, priority 2006, dated 2016).

Columns and labels:
[1] = CE activity (o-NPA) in human tumor cell lines expressing CE after plasmid transfection or adenoviral transduction; format: biochemical; conditions: for CE Activity: ± SD, U373MG cells stably transfected (pIRESneo) expressing the enzyme
Excerpt: […], it was observed that expression of hiCE following plasmid-mediated transfection was frequently lower than that seen with rCE or […]. […] Since expression of the transgene from this expression vector is co-regulated with the neo gene via an IRES sequence, selection with similar concentrations of G418 should result in cell lines that express approximately equal levels of recombinant protein. However, the average levels of CE activity in U373hiCE, U373hCE1 and U373hCE1m6 cells were 287.6±76.6, 1077.1±77.5, and 466.5±52.6 nmoles/min/mg, respectively.
(§1) Carboxylesterase Assays. CE activity was determined using a spectrophotometric assay with 3 mM o-nitrophenyl acetate (o-NPA) as a substrate (Potter, et al. 1998. Cancer Res. 52:2646-2651; Wierdl, et al. 2001. Cancer Res. 61:5078-5082; Beaufay, et al. 1974. J. Cell Biol. 61:188-200). Data were expressed as nmoles o-nitrophenol produced per minute per milligram of protein. To correct for differences in CE expression within transfected cells, the enzyme activity values were corrected for the level of immuno-reactive CE protein as determined from western analyses.
(§2) Transfection of Cell Lines. Transient transfection of Cos7 cells was achieved by electroporation (Potter, et al. 1998. Cancer Res. 52:2646-2651). For the generation of stable cell lines, cDNAs were ligated into pIRESneo and U373MG cells were electroporated under similar conditions. Transfectants were selected in media containing 400 μg/ml of G418. Since the CE cDNA was linked via an internal ribosome entry sequence (IRES) to the neomycin gene, selection of individual G418-resistant clones was not necessary. Routinely, whole cell sonicates obtained from these pooled populations of cells contained 200-500 nmoles/min/mg of CE activity.
(§3) Construction of Adenovirus. Replication-deficient adenovirus expressing hCElm6 or rCE were constructed using standard protocols (Wierdl, et al. 2001. Cancer Res. 61:5078-5082). Multiplicity of infection (moi) was defined as the number of plaques produced in 1×10^6 293 cells in a total volume of 1 ml of media after incubation with virus for 1 hour.

[2] = Kinetic parameters for CPT-11 hydrolysis by purified recombinant CEs; format: biochemical; conditions: hCE1 and rCE values rest on cited data
Description: To directly compare the abilities of the mammalian CEs to hydrolyze CPT-11, a series of biochemical studies were carried out using the purified proteins in vitro. These experiments determined the Km, Vmax, kcat and kcat/Km values for the different enzymes.
Protein Purification. […] For hiCE, an alternative purification procedure was developed using DEAE chromatography and elution with a pH/salt gradient.
Determination of Kinetic Parameters for Substrate Hydrolysis.

[3] = Carboxylesterase (CE) activity of whole cell sonicates of transiently transfected Cos7 cells, o-NPA substrate; format: biochemical
Description: (§4) Whole cell sonicates were monitored for CE activity. Results were expressed as nmoles o-nitrophenol produced per minute per milligram of total protein. To correct for differences in CE expression within transfected cells, the enzyme activity values were corrected for the level of immunoreactive CE protein as determined using a western blot analysis.
as §1, §2
(§5) Western Analysis. Cell extracts were separated in 4-20% pre-cast SDS-PAGE gels (Invitrogen, Carlsbad, Calif.) and following transfer to Immobilon-P membranes by electroblotting (Matsuidaira. 1990. Methods Enzymol. 182:602-613), western analysis was performed using known methods (Morton & Potter. 1998. J. Pharmacol. Expt. Therap. 286:1066-1073). CEs were identified using an anti-peptide antibody raised against the C-terminal amino acids […] In all experiments, membranes were re-probed with an anti-TFIID antibody to confirm equal loading, and to correct for any differences in total protein. The molecular weight of immuno-reactive bands was determined using pre-stained molecular weight protein markers (Pierce, Rockford, Ill.). Densitometric quantitation of CE expression was performed using One-Dscan gel analysis software (Scanalytics Inc, Fairfax, Va.).

[4] = CPT-11 conversion assay (CPT-11 to SN-38) with extracts of transfected COS-7 cells, HPLC; format: biochemical; conditions: Cos7 cell extracts
Excerpt: as §4
This was necessary since it was unclear whether the mutations would influence the ability of the CEs to metabolize o-NPA, which is used as a measure of enzyme activity.
CPT-11 Conversion Assays. […] An equal volume of acidified methanol was added to terminate the reactions and particulate matter was removed by centrifugation at 100,000 g for 5 minutes at 4° C. Concentrations of both drugs in the supernatant were then determined by HPLC (Guichard, et al. 1998. Clin. Cancer Res. 4:3089-3094; Morton, et al. 2000. Cancer Res. 60:4206-4210).
as §5

U373MG cells = test: Growth inhibition by CPT-11 of U373MG cells; format: cell-based, human; conditions: for sensitization of cells to CPT-11: U373MG cells expressing the labelled enzyme
Description: Experiments were also performed in human brain tumor cells (U373MG) where the growth of the cells was examined in cells that expressed the mutant form of the human CE enzyme.
Experiments were also performed to determine whether cells expressing a secreted form of hCElm6 (SEQ ID NO:16) produced media that had CE activity.
as §2, with “necessary.” for “necessary. Routinely, whole cell sonicates obtained from these pooled populations of cells contained 200-500 nmoles/min/mg of CE activity.”
as §3
Growth Inhibition Assays.

[5] = substrate: CCc1c2c(nc3ccc(OC(=O)N4CCC(N5CCCCC5)CC4)cc13)-c1cc3c(c(=O)n1C2)COC(=O)[C@]3(O)CC; test: purified protein, by the assay type; conditions: other: CPT-11 hydrolysis, hCE1m6
[6] = Table 3, Cos7 whole cell sonicates, 3 mM o-NPA, nmoles o-nitrophenol per min per mg
[7] = Table 4, rCE mutant panel, Cos7 extracts, o-NPA

B1: rCE: wild-type rabbit liver carboxylesterase, Genbank AF036930 (protein, listed as Oryctolagus cuniculus)
chain: GSLRFAPPQPAESWSHVKNTTSYPPMCSQDAVSGHMLSELFTNRKENIPLKFSEDCLYLNIYTPADLTKRGRLPVMVWIHGGGLMVGGASTYDGLALSAHENVVVVTIQYRLGIWGFFSTGDEHSRGNWGHLDQVAALRWVQDNIANFGGDPGSVTIFGESAGGQSVSILLLSPLTKNLFHRAISESGVALLSSLFRKNTKSLAEKIAIEAGCKTTTSAVMVHCLRQKTEEELMEVTLKMKFMALDLVGDPKENTAFLTTVIDGVLLPKAPAEILAEKKYNMLPYMVGINQQEFGWIIPMQMLGYPLSEGKLDQKTATELLWKSYPIVNVSKELTPVATEKYLGGTDDPVKKKDLFLDMLADLLFGVPSVNVARHHRDAGAPTYMYEYRYRPSFSSDMRPKTVIGDHGDEIFSVLGAPFLKEGATEEEIKLSKMVMKYWANFARNGNPNGEGLPQWPAYDYKEGYLQIGATTQAAQKLKDKEVAFWTELWAKEAARPRETEHIEL
[1]
  CE Activity: 601.0 ± 20.5 nmol/min/mg
[2]
  Ratio kcat/Km as compared to hCE1: 650
[3]; [6]
  CE Activity: 332.7 ± 17.2 nmol/min/mg
[3]; [7]
  CE Activity: 243.1 ± 17.0 nmol/min/mg CE
[4]; Table 3, 5 μM CPT-11, 1 hour, corrected for CE protein by western
  CPT-11 Converting Activity: 41 pmol/hr/mg CE
[4]; Table 4, rCE mutant panel
  CPT-11 Converting Activity: 75.6 pmol/hr/mg CE
U373MG cells
  sensitization of cells to CPT-11: sensitized

B2: secreted form of hCE1mut6: mutant human CE lacking the six C-terminal amino acid residues (Thr-Glu-His-Ile-Glu-Leu); expressed from pIRESmut6C (protein)
chain: MWLRAFILATLSASAAWGHPSSPPVVDTVHGKVLGKFVSLEGFAQPVAIFLGIPFAKPPLGPLRFTPPQPAEPWSFVKNATSYPPMCTQDPKAGQLLSELFTNRKENIPLKLSEDCLYLNIYTPADLTKKNRLPVMVWIHGGGLMVGAASTYDGLALAAHENVVVVTIQYRLGIWGFFSTGDEHSRGNWGHLDQVAALRWVQDNIASFGGNPGSVTIFGESAGGESVSVLVLSPLAKNLFHRAISESGVALTSVLVKKGDVKPLAEQIAITAGCKTTTSAVMVHCLRQKTEEELLETTLKMKFLSLDLQGDPRESQPLLGTVIDGMLLLKTPEELQAERNFHTVPYMVGINKQEFGWIIPMQMLGYPLSEGQLDQKTAMSLLWKSYPLVCIAKELIPEATEKYLGGTDDTVKKKDLFLDLIADVMFGVPSVIVARNHRDAGAPTYMYEYRYRPSFSSDMRPKTVIGDHGDELFSVFGAPFLKEGASEEEIRLSKMVMKFWANFARNGNPNGEGLPHWPEYNQKEGYLQIGANTQAAQKLKDKEVAFWTNLFAKKAVEKPPQ
modifications: Synthethic mutant human carboxylesterase
notes: mutant human CE lacking the six C-terminal amino acid residues (Thr-Glu-His-Ile-Glu-Leu); expressed from pIRESmut6C
U373MG cells; U373MG cells expressing intracellular (u373IRESmut6) or secreted (U373IRESmut6C) form, FIG. 4
  fold reduction in the IC50 value for CPT-11: ~130 fold

B3: hCE1 variant hCE1m6 (hCE1mut6; L362M, M363L, K459R, F448Y, Q449R, L358I, S364G, Q362 insertion), SEQ ID NO:3 (Homo sapiens; … (protein)
chain: GHPSSPPVVDTVHGKVLGKFVSLEGFAQPVAIFLGIPFAKPPLGPLRFTPPQPAEPWSFVKNATSYPPMCTQDPKAGQLLSELFTNRKENIPLKLSEDCLYLNIYTPADLTKKNRLPVMVWIHGGGLMVGAASTYDGLALAAHENVVVVTIQYRLGIWGFFSTGDEHSRGNWGHLDQVAALRWVQDNIASFGGNPGSVTIFGESAGGESVSVLVLSPLAKNLFHRAISESGVALTSVLVKKGDVKPLAEQIAITAGCKTTTSAVMVHCLRQKTEEELLETTLKMKFLSLDLQGDPRESQPLLGTVIDGMLLLKTPEELQAERNFHTVPYMVGINKQEFGWIIPMQMLGYPLSEGQLDQKTAMSLLWKSYPLVCIAKELIPEATEKYLGGTDDTVKKKDLFLDLIADVMFGVPSVIVARNHRDAGAPTYMYEYRYRPSFSSDMRPKTVIGDHGDELFSVFGAPFLKEGASEEEIRLSKMVMKFWANFARNGNPNGEGLPHWPEYNQKEGYLQIGANTQAAQKLKDKEVAFWTNLFAKKAVEKPPQTEHIEL
[5]
  Km: 6.25 ± 0.59 µM

B4: hCE1: wild-type human liver carboxylesterase, Genbank M73499 (protein, listed as Homo sapiens)
chain: MWLRAFILATLSASAAWGHPSSPPVVDTVHGKVLGKFVSLEGFAQPVAIFLGIPFAKPPLGPLRFTPPQPAEPWSFVKNATSYPPMCTQDPKAGQLLSELFTNRKENIPLKLSEDCLYLNIYTPADLTKKNRLPVMVWIHGGGLMVGAASTYDGLALAAHENVVVVTIQYRLGIWGFFSTGDEHSRGNWGHLDQVAALRWVQDNIASFGGNPGSVTIFGESAGGESVSVLVLSPLAKNLFHRAISESGVALTSVLVKKGDVKPLAEQIAITAGCKTTTSAVMVHCLRQKTEEELLETTLKMKFLSLDLQGDPRESQPLLGTVIDGMLLLKTPEELQAERNFHTVPYMVGINKQEFGWLIPMLMSYPLSEGQLDQKTAMSLLWKSYPLVCIAKELIPEATEKYLGGTDDTVKKKDLFLDLIADVMFGVPSVIVARNHRDAGAPTYMYEFQYRPSFSSDMKPKTVIGDHGDELFSVFGAPFLKEGASEEEIRLSKMVMKFWANFARNGNPNGEGLPHWPEYNQKEGYLQIGANTQAAQKLKDKEVAFWTNLFAKKAVEKPPQTEHIEL
[1]; U373MG cells stably transfected with pIRESneo constructs, monitored over an extended time period
  average levels of CE activity: 1077.1 ± 77.5 nmol/min/mg
[1]
  CE Activity: 1016.4 ± 45.5 nmol/min/mg
[2]
  Ratio kcat/Km as compared to hCE1: 1
[3]; [6]
  CE Activity: 119.0 ± 5.0 nmol/min/mg
[3]; [7]
  CE Activity: 329.2 ± 11.6 nmol/min/mg CE
[4]; Table 4, rCE mutant panel
  CPT-11 Converting Activity: Not Detected
U373MG cells
  sensitization of cells to CPT-11: not sensitized
